These results are taken from paper PMC5550493, “The Conserved Lysine-265 Allosterically Modulates Nucleotide- and Actin-binding Site Coupling in Myosin-2” (Scientific Reports, 2017).

Numbering of substitutions follows the chain as printed. Names may count otherwise.

First the molecules themselves.
B1: Dd myosin-2 M765-2R wild type (Dd myosin-2 motor domain fused to two Dd α-actinin repeats) (other)
chain: MNPIHDRTSDYHKYLKVKQGDSDLFKLTVSDKRYIWYNPDPKERDSYECGEIVSETSDSFTFKTVDGQDRQVKKDDANQRNPIKFDGVEDMSELSYLNEPAVFHNLRVRYNQDLIYTYSGLFLVAVNPFKRIPIYTQEMVDIFKGRRRNEVAPHIFAISDVAYRSMLDDRQNQSLLITGESGAGKTENTKKVIQYLASVAGRNQANGSGVLEQQILQANPILEAFGNAKTTRNNNSSRFGKFIEIQFNSAGFISGASIQSYLLEKSRVVFQSETERNYHIFYQLLAGATAEEKKALHLAGPESFNYLNQSGCVDIKGVSDSEEFKITRQAMDIVGFSQEEQMSIFKIIAGILHLGNIKFEKGAGEGAVLKDKTALNAASTVFGVNPSVLEKALMEPRILAGRDLVAQHLNVEKSSSSRDALVKALYGRLFLWLVKKINNVLCQERKAYFIGVLDISGFEIFKVNSFEQLCINYTNEKLQQFFNHHMFKLEQEEYLKEKINWTFIDFGLDSQATIDLIDGRQPPGILALLDEQSVFPNATDNTLITKLHSHFSKKNAKYEEPRFSKTEFGVTHYAGQVMYEIQDWLEKNKDPLQQDLELCFKDSSDNVVTKLFNDPNIASRAKKGANFITVAAQYKEQLASLMATLETTNPHFVRCIIPNNKQLPAKLEDKVVLDQLRCNGVLEGIRITRKGFPNRIIYADFVKRYYLLAPNVPRDAEDSQKATDAVLKHLNIDPEQYRFGITKIFFRAGQLARIEEAREQRISEILEQTKSDYLKRANELVQWINDKQASLESRDFGDSIESVQSFMNAHKEYKKTEKPPKGQEVSELEAIYNSLQTKLRLIKREPFVAPAGLTPNEIDSTWSALEKAEQEHAEALRIELKRQKKIAVLLQKYNRILKKLENWATTKSVYLGSNETGDSITAVQAKLKNLEAFDGECQSLEGQSNSDLLSILAQLTELNYNGVPELTERKDTFFAQQWTGVKSSAETYKNTLLAELERLQKIEDSLV
notes: Dictyostelium discoideum myosin-2 heavy chain (mhcA gene), first 765 residues (motor domain); Dictyostelium discoideum α-actinin, codon 264 to 505 (two α-actinin repeats, artificial lever arm); Expression vector based on pDXA-3H; also called WT; M765-2R WT; source: Dictyostelium discoideum AX3-Orf+ cells, purified (Ni-NTA)
B2: Dd myosin-2 M765-2R K265Q (other)
chain: B1 chain with K265Q
notes: Dictyostelium discoideum myosin-2 heavy chain (mhcA gene), first 765 residues (motor domain), with K265Q; Dictyostelium discoideum α-actinin, codon 264 to 505 (two α-actinin repeats, artificial lever arm); Point mutant of the fusion construct m1; source: Dictyostelium discoideum AX3-Orf+ cells, purified (Ni-NTA)
B3: Dd myosin-2 M765-2R K265A (other)
chain: B1 chain with K265A
notes: Dictyostelium discoideum myosin-2 heavy chain (mhcA gene), first 765 residues (motor domain), with K265A; Dictyostelium discoideum α-actinin, codon 264 to 505 (two α-actinin repeats, artificial lever arm); Point mutant of the fusion construct m1; source: Dictyostelium discoideum AX3-Orf+ cells, purified (Ni-NTA)
B4: Dd myosin-2 M765-2R K265E (other)
chain: B1 chain with K265E
notes: Dictyostelium discoideum myosin-2 heavy chain (mhcA gene), first 765 residues (motor domain), with K265E; Dictyostelium discoideum α-actinin, codon 264 to 505 (two α-actinin repeats, artificial lever arm); Point mutant of the fusion construct m1; source: Dictyostelium discoideum AX3-Orf+ cells, purified (Ni-NTA)

For one assay, the target named is Pyrene-labelled F-actin (rabbit skeletal muscle actin) (rabbit, UniProt P68135 1-377, pyrene label). Nature of the assay: other fluorescence titration; stopped-flow, pyrene-actin fluorescence; k+A from the slope of observed rate constants against actin concentration; k-A by chasing pyrene-actin from the complex with a large excess of unlabelled F-actin; KA calculated as k-A/k+A; 25 mM MOPS, 100 mM KCl, 5 mM MgCl2, 1 mM DTT, pH 7.0, 20 °C. The following applies: both partners purified.
The Kd is the equilibrium constant for the complex coming apart. The koff is the rate constant with which the complex falls apart. One may read the kon as a measure of how fast the partners come together. On to B1, for which the Kd is 3.6 nM, the koff is 0.0049 s⁻¹ and the kon was 1.37e+06 M⁻¹ s⁻¹.
With B2, the Kd is 7.6 nM, the koff was 0.0078 s⁻¹ and the kon is 1.02e+06 M⁻¹ s⁻¹.
For B3, the Kd was 7.5 nM, the koff is 0.0104 s⁻¹ and the kon is 1.38e+06 M⁻¹ s⁻¹.
For B4 the same measures were 10.1 nM, 0.0113 s⁻¹ and 1.11e+06 M⁻¹ s⁻¹.

The target in another assay is F-actin (rabbit skeletal muscle actin) (rabbit, UniProt P68135 1-377). Nature of the assay: cell-based or functional assay.
Conditions: not given
As to B1, the “k cat/K app, calculated from k cat and K app of the actin-activated steady-state ATPase” value is 30000 M⁻¹ s⁻¹.
Still for that read-out and setting: next, B2: 19000 M⁻¹ s⁻¹.
In the case of B3, the “k cat/K app, calculated from k cat and K app of the actin-activated steady-state ATPase” value is 20000 M⁻¹ s⁻¹.
On the same count and under the same terms, next, B4: 15000 M⁻¹ s⁻¹.
